Reference: patent US20240199739A1 (Takeda / Millennium, published 2024)

Biological target: cyno EpCAM (cyno)
Test: assay not stated; drawn table, heading 'Binding Affinity (nM)', column 'Cyno'

Chain of cyno EpCAM (cyno) (Q1WER1 24-265): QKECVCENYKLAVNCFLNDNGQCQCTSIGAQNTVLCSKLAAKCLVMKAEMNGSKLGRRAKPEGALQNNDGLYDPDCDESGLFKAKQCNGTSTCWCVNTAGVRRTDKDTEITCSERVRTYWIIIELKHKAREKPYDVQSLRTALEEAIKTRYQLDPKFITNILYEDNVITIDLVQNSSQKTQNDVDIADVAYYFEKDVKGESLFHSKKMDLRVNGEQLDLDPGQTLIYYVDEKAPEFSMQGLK

Kd: 51.8 nM
B1: hVIB-23 (VHH)
VHH: QVQLVESGGGLVQPGGSLTLSCVISGSFSALWAMRWYRQAPGQQRELVASSRGGTTSYADSVKGRFTISRDNSKNTLYLQMNSLRPEDTAVYYCNAIDGHLAYWGQGTLVTVSS
